For experiment [1], the target named is T1, SARS-CoV-2 WT stabilized soluble spike protein, hexahistidine-tagged (SARS-CoV-2 Wuhan-Hu-1, UniProt P0DTC2, stabilised).
T1 construct: also called WT SARS-CoV-2 S
Kind of experiment: BLI. The note with it: both partners purified.

In experiment [2] the target is T2, SARS-CoV-2 WT soluble RBD (residues 319-541) (SARS-CoV-2 Wuhan-Hu-1, UniProt P0DTC2).
T2 construct: also called WT RBD; WT D614G RBD gene fragment
In words: ELISA. The note with it: both partners purified. On the technique in general: In an ELISA, binding on a coated surface is turned into a signal by an enzyme label.

B1: COVA309-22 monoclonal antibody (human IgG1) (antibody, V domains shown)
VH: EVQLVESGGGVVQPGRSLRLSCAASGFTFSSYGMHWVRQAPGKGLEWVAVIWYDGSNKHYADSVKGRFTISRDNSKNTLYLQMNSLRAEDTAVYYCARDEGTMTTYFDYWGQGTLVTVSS
VL: EIVLTQSPSSLSASVGDRVTITCRASQSISSYLNWYQQKPGKAPKLLIYDASSLQSGVPSRFSGSGSGTDFTLTISSLQPEDFATYYCQQSYSTPPWTFGQGTKVEIK
For the molecule B1, the binding result in experiment [1] and in experiment [2] was “binds” in each case.
